Results: the RNAGym collection of RNA variant scans (doi:10.1021/acssynbio.7b00057)

B1: Pistol ribozyme (parent)
chain: GGGUCGUUGUUCCAUAAUCGCGUGGAUAUGGCACGCAAGUUUCUACCGGGCACCGUAAAUGUCCGACUGGAGCCGUUCGGGCGGCUAUAAACAGACCUCAGGCCCGAAGCGUGGCGGCACCUGCCGCCGGUGGUAAAAAAGAUCGGAAGAGCACACGUCU

Variants of: B1
Experiment: aptazyme ON/OFF ratio, guanine; higher = stronger switching; co-transcriptional cleavage with and without guanine

Variant | aptazyme ON/OFF ratio
U7C U8C U10G C12G | 1.12
U7C U8C U10G C12U | 1.11
U7C U8C U10G C12A | 1.13
U7C U8C U10C C12G C13G | 1.18
U7C U8C U10C C12G C13U | 1.2
U7C U8C U10C C12G C13A | 1.24
U7C U8C U10C C13G | 1.24
U7C U8C U10C C13U | 2.08
U7C U8C U10C C13A | 1.24
U7C U8C U10A U11A C12G | 1.24
U7C U8C U10A U11A C12U | 1.16
U7C U8G G9A U10A U11G C12A C13G | 1.19
U7C U8G G9A U10A U11G C12A C13U | 1.16
U7C U8G G9A U10A U11G C12A C13A | 1.13
U7C U8C U10G U11C C12G C13U | 1.17
U7C U8C U10G U11C C12G C13A | 1.17
U7C U8C U10G U11C C12G C13G | 1.13
U7C U8C U10A U11G C12G C13A | 1.25
U7C U8C U10A U11G C12G C13U | 1.14
U7C U8C U10A U11G C12G C13G | 1.22
U7C U8G G9A C12A C13G | 1.16
U7C U8G G9A C12A C13A | 1.28
U7C U8G G9A C12A C13U | 1.29
U7C U8G G9A U10A U11C C12U C13G | 1.08

Variant | aptazyme ON/OFF ratio
U7C U8G G9A U10A U11C C12U C13A | 1.14
U7C U8G G9A U10A U11C C12U C13U | 1.08
U7C U8C U10C | 1.26
U7C U8C U10G | 1.98
U7C U8C U11A C12A C13U | 1.31
U7C U8C U11A C12A C13A | 1.2
U7C U8C U11A C12A C13G | 1.15
U7C U8C U10G U11A | 1.24
U7C U8C U10G U11G | 1.49
U7C U8C U10G U11C | 1.39
U7C U8C U10G U11A C13A | 1.21
U7C U8C U10G U11A C13G | 1.14
U7C U8C U10G U11A C13U | 1.15
U7C U8C U10G U11C C12U C13G | 1.11
U7C U8C U10G U11C C12U C13A | 1.2
U7C U8C U10G U11C C12U C13U | 1.29
U7C U8G | 1.35
U7C U8G G9A U10C C12G C13G | 1.12
U7C U8G G9A U10C C12G C13U | 1.31
U7C U8G G9A U10C C12G C13A | 1.13
U7C U8G G9A U10A U11A C13G | 1.07
U7C U8G G9A U10A U11A C13A | 1.12
U7C U8G G9A U10A U11A C13U | 1.12
U7C U8G G9A U10A U11A C12U | 1.18

Variant | aptazyme ON/OFF ratio
U7C U8G G9A U10A U11A C12G | 1.1
U7C U8G G9A U10A U11A C12A | 1.26
U7C U8G G9A U10C U11A C12A C13A | 1.11
U7C U8C U10C U11G | 1.23
U7C U8C U10C U11C | 1.46
U7C U8C U10C U11A | 1.9
U7C U8C U10G U11A C12G C13A | 1.08
U7C U8C U10G U11A C12G C13G | 1.11
U7C U8C U10G U11A C12G C13U | 1.09
U7C U8C U10C U11G C12A C13A | 1.32
U7C U8C U10C U11G C12A C13U | 1.52
U7C U8C U10C U11G C12A C13G | 1.27
U7C U8C U10C U11A C12A | 1.31
U7C U8C U10C U11A C12U | 1.32
U7C U8C U10C U11A C12G | 1.05
U7C U8G G9A U10C C12A C13A | 1.13
U7C U8G G9A U10C C12A C13G | 1.09
U7C U8G G9A U10C C12A C13U | 1.14
U7C U8C U11G C12G C13A | 1.1
U7C U8C U11G C12G C13G | 1.16
U7C U8C U11G C12G C13U | 1.09
U7C U8C U10C U11G C12G | 1.18
U7C U8C U10C U11G C12A | 1.38
U7C U8C U10C U11G C12U | 1.2

Variant | aptazyme ON/OFF ratio
U7C U8C U11G C12U | 1.25
U7C U8C U11G C12A | 1.35
U7C U8C U11G C12G | 1.33
U7C U8G G9A U10A U11C C12A C13G | 1.15
U7C U8G G9A U10A U11C C12A C13A | 1.15
U7C U8G G9A U10A U11C C12A C13U | 1.17
U7C U8G C12U | 2.44
U7C U8G C12A | 1.63
U7C U8G C12G | 1.29
U7C U8G G9A U10A U11C C13G | 1.02
U7C U8G G9A U10A U11C C13A | 1.03
U7C U8G G9A U10A U11C C13U | 1.04
U7C U8G G9A C12G C13A | 1.15
U7C U8G G9A C12G C13G | 1.12
U7C U8G G9A C12G C13U | 1.21
U7C U8G G9A U10A C13G | 1.05
U7C U8G G9A U10A C13A | 1.12
U7C U8G G9A U10A C13U | 1.15
U7C U8C U10G U11A C12U C13A | 1.16
U7C U8C U10G U11A C12U C13U | 1.21
U7C U8C U10G U11A C12U C13G | 1.1
U7C U8C U11A C12G C13G | 1.12
U7C U8C U11A C12G C13U | 1.12
U7C U8C U11A C12G C13A | 1.13

Variant | aptazyme ON/OFF ratio
U7C U8C U10C U11C C13A | 1.31
U7C U8C U10C U11C C13U | 1.38
U7C U8C U10C U11C C13G | 1.28
U7C U8C U10A U11G C13G | 1.18
U7C U8C U10A U11G C13A | 1.25
U7C U8C U10A U11G C13U | 1.18
U7C U8C U10A U11G C12A C13A | 1.06
U7C U8C U10A U11G C12A C13G | 1.11
U7C U8C U10A U11G C12A C13U | 1.12
U7C U8C U11A C13U | 1.27
U7C U8C U11A C13A | 1.21
U7C U8C U11A C13G | 1.19
U7C U8C U11C | 2.42
U7C U8C U11A | 1.66
U7C U8C U11G | 1.31
U7C U8C U10C U11C C12A | 1.24
U7C U8C U10C U11C C12G | 1.2
U7C U8C U10C U11C C12U | 1.26
U7C U8C U10C C12U C13U | 1.45
U7C U8C U10C C12U C13A | 1.35
U7C U8C U10C C12U C13G | 1.34
U7C U8C U10C C12A C13A | 1.6
U7C U8C U10C C12A C13U | 1.35
U7C U8C U10C C12A C13G | 1.14

Variant | aptazyme ON/OFF ratio
U7C U8G G9A U10A U11G C13A | 1.2
U7C U8G G9A U10A U11G C13U | 1.27
U7C U8G G9A U10A U11G C13G | 1.02
U7C U8G G9A U10A U11A C12G C13A | 1.12
U7C U8G G9A U10A U11A C12G C13G | 1.21
U7C U8G G9A U10A U11A C12G C13U | 1.21
U7C U8G G9A U10A U11C C12G C13G | 1.34
U7C U8G G9A U10A U11C C12G C13U | 1.45
U7C U8G G9A U10A U11C C12G C13A | 1.32
U7C U8C U11C C13G | 1.12
U7C U8C U11C C13U | 1.3
U7C U8C U11C C13A | 1.24
U7C U8C U10C U11C C12G C13G | 1.3
U7C U8C U10C U11C C12G C13A | 1.1
U7C U8C U10C U11C C12G C13U | 1.31
U7C U8G C12U C13G | 1.18
U7C U8G C12U C13U | 1.3
U7C U8G C12U C13A | 1.22
U7C U8C U10C C12U | 1.36
U7C U8C U10C C12G | 1.16
U7C U8C U10C C12A | 1.39
U7C U8C U10C U11G C12U C13G | 1.23
U7C U8C U10C U11G C12U C13A | 1.28
U7C U8C U10C U11G C12U C13U | 1.3

Variant | aptazyme ON/OFF ratio
U7C U8G G9A U10A U11G | 1.33
U7C U8G G9A U10A U11C | 1.04
U7C U8G G9A U10A U11A | 1.31
U7C U8C U11G C13A | 1.24
U7C U8C U11G C13G | 1.28
U7C U8C U11G C13U | 1.3
U7C U8C U10C U11G C12G C13G | 1.13
U7C U8C U10C U11G C12G C13A | 1.15
U7C U8C U10C U11G C12G C13U | 1.1
U7C U8G G9A C12U C13A | 1.16
U7C U8G G9A C12U C13U | 1.22
U7C U8G G9A C12U C13G | 1.35
U7C U8G C12G C13A | 1.09
U7C U8G C12G C13U | 1.17
U7C U8G C12G C13G | 1.08
U7C U8G G9A U10A U11A C12A C13U | 1.21
U7C U8G G9A U10A U11A C12A C13G | 1.2
U7C U8G G9A U10A U11A C12A C13A | 1.2
U7C U8C U10G C12G C13U | 1.13
U7C U8C U10G C12G C13G | 1.11
U7C U8C U10G C12G C13A | 1.11
U7C U8C U11C C12A C13G | 1.18
U7C U8C U11C C12A C13U | 1.28
